{"source": "the RNAGym collection of RNA variant scans (doi:10.1093/molbev/msab373)", "parents": {"B1": {"name": "Azoarcus group I ribozyme (parent)", "chain": "GUGCCUUGCGCCGGGAAACCACGCAAGGGAUGGUGUCAAAUUCGGCGAAACCUAAGCGCCCGCCCGGGCGUAUGGCAACGCCGAGCCAAGCUUCGGCGCCUGCGCCGAUGAAGGUGUAGAGACUAGACGGCACCCACCUAAGGCAAACGCUAUGGUGAAGGCAUAGUCCAGGGAGUGGCGAAAGUCACACAAACCGG"}}}
{"variants_of": "B1", "experiment": "reverse-splicing fitness (ratio to wild type); higher = more active; in vitro selection; Mg2+ level not given", "outline": "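An in vitro group I ribozyme library with randomized positions was T7-transcribed and gel-purified. In triplicate, 10 pmol RNA in EPPS pH 7.5 was reacted with 50 pmoles of a 30-nt RNA substrate for 1 h at 37 °C across several added MgCl2 levels (1–48 mM), then stopped with EDTA. Products were reverse transcribed from a substrate-complementary primer, PCR-amplified and sequenced (HiSeq 4000). Fitness is a variant's read proportion after selection over that before, normalised to wild type.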"}
{"variant": "GUGCCUUGCGCCGGGAAACCACGCAAGGGAUGGUGUCAAAUUCGGCGAAACCUAAGCGCCCGCCCGGGCGUAUGGCAACGCAGAGCCAAGCUUCGGCGCCUGCGCCGAUGGAGGUGUAGCGACUAGACGGCACCCACCUAAGGCUAACGUUAUGGUGAAGGCAUAGUCUAGGGAGAGGCGAAAGUCACACAAACCGG", "note": "[C82A A111G A120C A145U C150U C169U U176A]", "reverse-splicing fitness": 0.0144}
{"variant": "GUGCCUUGCGCCGGGAAACCACGCAAGGGAUGGUGUCAAAUUCGGCGAAACCUAAGCGCCCGCCCGGGCGUAUGGCAACGCAGAGCCAAGCUUCGGCGCCUGCGCCGAUGGAGGUGUAGCGACUAGACGGCACCCACCUAAGGCUAACGUUAUGGUGAAGGCAUAGUCAAGGGAGCGGCGAAAGUCACACAAACCGG", "note": "[C82A A111G A120C A145U C150U C169A U176C]", "reverse-splicing fitness": 0.0127}
{"variant": "GUGCCUUGCGCCGGGAAACCACGCAAGGGAUGGUGUCAAAUUCGGCGAAACCUAAGCGCCCGCCCGGGCGUAUGGCAACGCAGAGCCAAGCUUCGGCGCCUGCGCCGAUGGAGGUGUAGCGACUAGACGGCACCCACCUAAGGCUAACGUUAUGGUGAAGGCAUAGUCAAGGGAGGGGCGAAAGUCACACAAACCGG", "note": "[C82A A111G A120C A145U C150U C169A U176G]", "reverse-splicing fitness": 0.00591}
{"variant": "GUGCCUUGCGCCGGGAAACCACGCAAGGGAUGGUGUCAAAUUCGGCGAAACCUAAGCGCCCGCCCGGGCGUAUGGCAACGCAGAGCCAAGCUUCGGCGCCUGCGCCGAUGGAGGUGUAGCGACUAGACGGCACCCACCUAAGGCUAACGUUAUGGUGAAGGCAUAGUCAAGGGAGAGGCGAAAGUCACACAAACCGG", "note": "[C82A A111G A120C A145U C150U C169A U176A]", "reverse-splicing fitness": 0.0157}
{"variant": "GUGCCUUGCGCCGGGAAACCACGCAAGGGAUGGUGUCAAAUUCGGCGAAACCUAAGCGCCCGCCCGGGCGUAUGGCAACGCAGAGCCAAGCUUCGGCGCCUGCGCCGAUGGAGGUGUAGCGACUAGACGGCACCCACCUAAGGCUAACGUUAUGGUGAAGGCAUAGUCCAGGGAGUGGCGAAAGUCACACAAACCGG", "note": "[C82A A111G A120C A145U C150U]", "reverse-splicing fitness": 0.0296}
{"variant": "GUGCCUUGCGCCGGGAAACCACGCAAGGGAUGGUGUCAAAUUCGGCGAAACCUAAGCGCCCGCCCGGGCGUAUGGCAACGCAGAGCCAAGCUUCGGCGCCUGCGCCGAUGGAGGUGUAGCGACUAGACGGCACCCACCUAAGGCUAACGUUAUGGUGAAGGCAUAGUCGAGGGAGGGGCGAAAGUCACACAAACCGG", "note": "[C82A A111G A120C A145U C150U C169G U176G]", "reverse-splicing fitness": 0.00539}
{"variant": "GUGCCUUGCGCCGGGAAACCACGCAAGGGAUGGUGUCAAAUUCGGCGAAACCUAAGCGCCCGCCCGGGCGUAUGGCAACGCAGAGCCAAGCUUCGGCGCCUGCGCCGAUGGAGGUGUAGCGACUAGACGGCACCCACCUAAGGCUAACGUUAUGGUGAAGGCAUAGUCGAGGGAGCGGCGAAAGUCACACAAACCGG", "note": "[C82A A111G A120C A145U C150U C169G U176C]", "reverse-splicing fitness": 0.0191}
{"variant": "GUGCCUUGCGCCGGGAAACCACGCAAGGGAUGGUGUCAAAUUCGGCGAAACCUAAGCGCCCGCCCGGGCGUAUGGCAACGCAGAGCCAAGCUUCGGCGCCUGCGCCGAUGGAGGUGUAGCGACUAGACGGCACCCACCUAAGGCUAACGUUAUGGUGAAGGCAUAGUCGAGGGAGAGGCGAAAGUCACACAAACCGG", "note": "[C82A A111G A120C A145U C150U C169G U176A]", "reverse-splicing fitness": 0.0145}
{"variant": "GUGCCUUGCGCCGGGAAACCACGCAAGGGAUGGUGUCAAAUUCGGCGAAACCUAAGCGCCCGCCCGGGCGUAUGGCAACGCAGAGCCAAGCUUCGGCGCCUGCGCCGAUGGAGGUGUAGCGACUAGACGGCACCCACCUAAGGCUAACGGUAUGGUGAAGGCAUAGUCUAGGGAGGGGCGAAAGUCACACAAACCGG", "note": "[C82A A111G A120C A145U C150G C169U U176G]", "reverse-splicing fitness": 0.00564}
{"variant": "GUGCCUUGCGCCGGGAAACCACGCAAGGGAUGGUGUCAAAUUCGGCGAAACCUAAGCGCCCGCCCGGGCGUAUGGCAACGCAGAGCCAAGCUUCGGCGCCUGCGCCGAUGGAGGUGUAGCGACUAGACGGCACCCACCUAAGGCUAACGUUAUGGUGAAGGCAUAGUCUAGGGAGUGGCGAAAGUCACACAAACCGG", "note": "[C82A A111G A120C A145U C150U C169U]", "reverse-splicing fitness": 0.0117}
{"variant": "GUGCCUUGCGCCGGGAAACCACGCAAGGGAUGGUGUCAAAUUCGGCGAAACCUAAGCGCCCGCCCGGGCGUAUGGCAACGCAGAGCCAAGCUUCGGCGCCUGCGCCGAUGGAGGUGUAGCGACUAGACGGCACCCACCUAAGGCUAACGUUAUGGUGAAGGCAUAGUCAAGGGAGUGGCGAAAGUCACACAAACCGG", "note": "[C82A A111G A120C A145U C150U C169A]", "reverse-splicing fitness": 0.0102}
{"variant": "GUGCCUUGCGCCGGGAAACCACGCAAGGGAUGGUGUCAAAUUCGGCGAAACCUAAGCGCCCGCCCGGGCGUAUGGCAACGCAGAGCCAAGCUUCGGCGCCUGCGCCGAUGGAGGUGUAGCGACUAGACGGCACCCACCUAAGGCUAACGUUAUGGUGAAGGCAUAGUCGAGGGAGUGGCGAAAGUCACACAAACCGG", "note": "[C82A A111G A120C A145U C150U C169G]", "reverse-splicing fitness": 0.00921}
{"variant": "GUGCCUUGCGCCGGGAAACCACGCAAGGGAUGGUGUCAAAUUCGGCGAAACCUAAGCGCCCGCCCGGGCGUAUGGCAACGCAGAGCCAAGCUUCGGCGCCUGCGCCGAUGGAGGUGUAGCGACUAGACGGCACCCACCUAAGGCUAACGGUAUGGUGAAGGCAUAGUCCAGGGAGCGGCGAAAGUCACACAAACCGG", "note": "[C82A A111G A120C A145U C150G U176C]", "reverse-splicing fitness": 0.00993}
{"variant": "GUGCCUUGCGCCGGGAAACCACGCAAGGGAUGGUGUCAAAUUCGGCGAAACCUAAGCGCCCGCCCGGGCGUAUGGCAACGCAGAGCCAAGCUUCGGCGCCUGCGCCGAUGGAGGUGUAGCGACUAGACGGCACCCACCUAAGGCUAACGGUAUGGUGAAGGCAUAGUCCAGGGAGGGGCGAAAGUCACACAAACCGG", "note": "[C82A A111G A120C A145U C150G U176G]", "reverse-splicing fitness": 0.00395}
{"variant": "GUGCCUUGCGCCGGGAAACCACGCAAGGGAUGGUGUCAAAUUCGGCGAAACCUAAGCGCCCGCCCGGGCGUAUGGCAACGCAGAGCCAAGCUUCGGCGCCUGCGCCGAUGGAGGUGUAGCGACUAGACGGCACCCACCUAAGGCUAACGGUAUGGUGAAGGCAUAGUCCAGGGAGAGGCGAAAGUCACACAAACCGG", "note": "[C82A A111G A120C A145U C150G U176A]", "reverse-splicing fitness": 0.00605}
